± gives the uncertainty stated by the source.
experiment: amyloid nucleation score (Sup35N fusion, yeast selection) (log enrichment); library NNK3; higher = more nucleation; inactive = no reads after selection
In short: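 Plasmid inserts were Illumina-sequenced at input and output from psi-negative yeast expressing Sup35N fused to peptides of 20 random codons. The yeast were induced with 100 μM copper sulfate for 24 hours and grown 7 days at 30°C on medium lacking adenine and uracil, and sequences with under 100 input reads were excluded. Nucleation score is the DiMSum log enrichment of output over input reads, centred on the mode score of non-aggregating sequences.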

Substance | amyloid nucleation score
EVMLYRQHHDVRHEHSGYLT | inactive
EVPTRLDKMNENCNREDSAP | inactive
EVSHSVEQYFSFMCHHTWAP | inactive
EVVSLLTFMLASLLSISVVN | inactive
EWQSYYSKQRIGSGPFQLFC | 0.179 ± 0.3
EWTVNMNSYLLVSVAYGCGS | inactive
EYMCACSLEILVL | inactive
EYNPQLSRNSNDLYADELKE | inactive
EYSRMSSNQMVYSLVIFHNL | 0.509 ± 0.33
FAFSNLTKPVFKI | inactive
FAGEATVDTWTIFMCVIRGW | -0.225 ± 0.53
FAKFAKSYNRPITVVLANCS | inactive
FALMFLSWYNRKSVSRPCTE | inactive
FAMMDELRRMWARSACSTRV | inactive
FANSY | inactive
FANYGEKIWCFGAMLGKRLS | inactive
FCAINP | inactive
FCFFSVSLDVLVHSGIC | 0.417 ± 0.19
FCFIHIFNHNSRTNF | inactive
FCFKSLALELPIQKY | inactive
FCFNGRCIFFYSSSLYVFGF | inactive
FCFRDIYKRSMSRSAYDSG | inactive
FCGNLEATYRSRFRSNAHSA | 0.698 ± 0.3

Substance | amyloid nucleation score
FCLFDFGILG | inactive
FCLFLSCGDKSILGA | inactive
FCRMVPLIEWSVTRFRDCVG | inactive
FCTPI | inactive
FDACLTERVVGISKDTDTSG | inactive
FDFWEDRVCPIYNCLGCGKL | inactive
FDGFLNFVITSRSNVF | inactive
FDRNSPTVLFRLRWEYF | inactive
FDRSSGKRMVL | 0.466 ± 0.21
FDVVVIYATGVCFLATYYQG | inactive
FECRQ | inactive
FEECGVGPYVTKREATWFNG | inactive
FELFKKGRSI | 0.898 ± 0.23
FESMGFHPRSVIYEYVCELN | inactive
FEWLMGRHLYISLRLHMRRS | inactive
FFANKYSLFAVVTMLANFLY | inactive
FFEFRSASYWGPSQYRNMCT | inactive
FFENWKLGDFAYRRIGTLLK | -0.515 ± 0.66
FFFVMSRRANVIGSLEDRSD | 0.936 ± 0.11
FFKFFWFSRRPISSFLGLCV | 0.708 ± 0.15
FFLPSG | inactive
FFLYSNIFQLS | 2.32 ± 0.092
FFNRGKVAETGFIWSMVVV | inactive

Substance | amyloid nucleation score
FFNVELLMIDCGFYEFHTDD | 2.1 ± 0.056
FFPAMRTCWGKSGCARPYA | inactive
FFRSCWCFVLLLNDCMITSL | inactive
FFRVYYRSTGGVNM | inactive
FFTRSNVLRSVCFSSPITLW | inactive
FFVFVR | 1.3 ± 0.15
FFVLGRSTMSWLR | inactive
FFVLYRLRELPPAQLMMKAA | inactive
FFVQSGIIEELYTW | 0.173 ± 0.31
FFVYVEHRCSYNGRTSDIFY | -0.185 ± 0.51
FFYDLMYLIMV | inactive
FFYSVLCLLRAVLVDSNLGW | inactive
FFYSYGRLNPKYDRVYISFG | -0.661 ± 0.98
FFYWSWVQPEPY | inactive
FFYYLRSVLHSSYLFRRDVI | inactive
FGCQTGWRFRFINSNNR | 1.25 ± 0.14
FGFPTFFSMTV | inactive
FGGVGAW | inactive
FGIKFVIQVDCRHIMHNCVN | 0.077 ± 0.87
FGIWFGRNLGVGMDTKMSRF | inactive
FGKGVCRLD | inactive
FGNLLVLSYDEDCNAATWVR | inactive
FGQCNQVCCSEWDKD | inactive

Substance | amyloid nucleation score
FGQVKSCLAPCKSAAKH | inactive
FGRSVDFMVIHFCTTY | inactive
FGSHYSFRIQKVFFAVQRSP | 2.41 ± 0.082
FGSNTGYVIEGRLAVGFEKL | inactive
FGSSMYRMKPVDC | inactive
FGVSNRMWRKSRNLSGSPRA | inactive
FGVYKLSWNP | 0.044 ± 0.41
FGYSLMLVTACVLRCQSLWS | inactive
FHGFLYSAFSSDG | inactive
FHIPLSQRCLAPFCNAHL | inactive
FHKKMCTWIDELVIAVQFRD | inactive
FHLYCTIITLACCIMVWNCQ | 1.33 ± 0.14
FHNFVRHIYAGGNRP | inactive
FHSAL | inactive
FHSQYEGAEERSPRNVLMAR | inactive
FHVSCSSFSKWNHENWHNLK | 0.006 ± 0.56
FIAFWCVNLRTL | inactive
FICFNFHRKECVEKASSSCK | 1.39 ± 0.064
FIDNRGSDSSTICCYNYAAQ | 0.407 ± 0.61
FIEKAC | inactive
FIILQFVGFLHNTGFWYQLG | 0.217 ± 0.25
FIIVPKWSCFLVSSMKFRVV | inactive
FILIYDRYRGF | 1.26 ± 0.095

Substance | amyloid nucleation score
FIVDVYICAVSLLVGFLDAE | inactive
FIVFTDF | inactive
FIVLCALLWFCLNWSDLLKF | inactive
FIWSAGGIITSHNCLYWQAS | inactive
FKLHCSDRYECTKDLSHLWC | inactive
FKLHIWSS | inactive
FKNCHGVVTRCQW | inactive
FKPWLYFGRPMAQLRDDCQV | inactive
FKQIVKTSFNLCFFIRCKRT | inactive
FKRCSSIVRGWSS | inactive
FKTCPKCSSSCCIFICPCSV | 0.753 ± 0.25
FKVWCVLSADIQF | inactive
FLCSTSLFVLVLMLTLTNTP | inactive
FLFIHKLTCLSLVKWTGFLV | inactive
FLFRNLVAWFMHSDLFFYGV | inactive
FLGDSTNGRRFFSEFRSEWG | 0.964 ± 0.17
FLGFEYILIAFRVGQYYLTG | inactive
FLGTHEGTDRLLWCVIEEKG | inactive
FLIDDMYWSVMDTWI | inactive
FLILVGLGRIDLMGTIIKKR | inactive
FLINPFVWFNNYSFTAF | 0.929 ± 0.14
FLIPYKRQIAQRRYVSLE | inactive
FLLRYWYKAVDSRHRYSQLI | inactive

Substance | amyloid nucleation score
FLLSVNQASNYGTWILWFYR | inactive
FLLVLWSVFLTGT | inactive
FLLVSLAA | inactive
FLLVTSRSEEAPLATETYRL | inactive
FLNVKIQNHWRPYPFSPEYA | 1.16 ± 0.092
FLQAAYSGSRVAKCVSESSK | inactive
FLRLHLFHSWTISLSSYRSV | inactive
FLSCCKGCLCCCQRPLSIYY | inactive
FLSDSNT | inactive
FLSSCKLMGFMS | inactive
FLTDRPYRGCG | inactive
FLTRFRDPT | -0.589 ± 0.9
FLVNDYFV | inactive
FLVPTLHYYLGRWQKKPMLY | inactive
FLVRRGCP | inactive
FLVTYKISWRYKSQQLCSYY | inactive
FLWLYQDCVV | inactive
FLWSLLYIFIVCGFCNPSRR | inactive
FLYWVGSFEAEPV | inactive
FMKSRINIRIALWCF | inactive
FMLNVVDY | inactive
FMMMYDCNLDCFRHSIEI | inactive
FMPPFASN | inactive

Substance | amyloid nucleation score
FMTLMVTLYLRLYSRSYGPQ | inactive
FMVSRMYEWCVCSVQCLMLF | inactive
FMWCYMKYCAVHAFDLSWKV | inactive
FNANINNNGIRFRREVNLCW | inactive
FNDYCSIKKSLTKSMYDLNG | inactive
FNERIRTNLFDSWTMWGMCF | inactive
FNETFYGKVGDILISLCRVL | inactive
FNKNTDRGI | inactive
FNLQL | 0.325 ± 0.57
FNSAHDQAAQVRHLHVNVFL | 3 ± 0.064
FNSKTLKLTFFMVVPEYCWW | inactive
FNSMYRVELVHCCSHNKICD | 1.41 ± 0.1
FNTPDRAPLLATCAVHANLH | inactive
FPDTALLGCNCLFCLEGDGL | inactive
FPELSGDYLVIRMTVQFWSV | inactive
FPGCSRENLTVGLSVTRTEG | inactive
FPGVLSLRYYLLRMRTQ | inactive
FPYVLVSTPVSPPICW | inactive
FQFNILNSVSGLCICYDSGH | 3.41 ± 0.081
FQRVCYHVWSTKN | inactive
FQVEKQF | inactive

From the supplement of paper PMC12042874
